Source: patent US20150175708A1 (Eli Lilly, published 2015)

B1: anti-MET/EGFR multifunctional antibody NH-YK (bispecific antibody, human IgG4 S228P, kappa, F234A L235A)
heavy: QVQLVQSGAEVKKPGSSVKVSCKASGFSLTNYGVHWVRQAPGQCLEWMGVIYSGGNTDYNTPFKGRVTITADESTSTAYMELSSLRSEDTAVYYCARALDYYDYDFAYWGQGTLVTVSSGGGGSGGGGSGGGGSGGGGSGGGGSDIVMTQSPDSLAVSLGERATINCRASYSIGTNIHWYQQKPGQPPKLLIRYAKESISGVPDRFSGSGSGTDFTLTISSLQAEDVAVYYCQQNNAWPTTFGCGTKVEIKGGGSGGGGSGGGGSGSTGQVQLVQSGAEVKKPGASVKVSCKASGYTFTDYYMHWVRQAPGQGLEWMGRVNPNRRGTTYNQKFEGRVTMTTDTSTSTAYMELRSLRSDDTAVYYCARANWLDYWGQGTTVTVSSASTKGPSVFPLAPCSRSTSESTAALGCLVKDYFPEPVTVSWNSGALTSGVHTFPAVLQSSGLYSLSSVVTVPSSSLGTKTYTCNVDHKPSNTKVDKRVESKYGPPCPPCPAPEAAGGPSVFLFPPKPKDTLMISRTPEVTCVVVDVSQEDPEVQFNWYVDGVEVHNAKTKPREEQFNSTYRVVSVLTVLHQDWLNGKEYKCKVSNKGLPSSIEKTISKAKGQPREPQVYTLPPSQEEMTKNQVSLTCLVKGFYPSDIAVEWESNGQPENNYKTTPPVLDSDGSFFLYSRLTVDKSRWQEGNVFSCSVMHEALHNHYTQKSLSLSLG
light: DIQMTQSPSSLSASVGDRVTITCSVSSSVSSIYLHWYQQKPGKAPKLLIYSTSNLASGVPSRFSGSGSGTDFTLTISSLQPEDFATYYCQVYSGYPLTFGGGTKVEIKRTVAAPSVFIFPPSDEQLKSGTASVVCLLNNFYPREAKVQWKVDNALQSGNSQESVTEQDSKDSTYSLSSTLTLSKADYEKHKVYACEVTHQGLSSPVTKSFNRGEC
notes: Tetravalent: anti-MET C8-H241 human IgG4 with an anti-EGFR YK scFv fused by a glycine-rich linker to the N-terminus of each heavy chain
B2: anti-MET/EGFR multifunctional antibody H9 (bispecific antibody, human IgG4 S228P, kappa, F234A L235A)
heavy: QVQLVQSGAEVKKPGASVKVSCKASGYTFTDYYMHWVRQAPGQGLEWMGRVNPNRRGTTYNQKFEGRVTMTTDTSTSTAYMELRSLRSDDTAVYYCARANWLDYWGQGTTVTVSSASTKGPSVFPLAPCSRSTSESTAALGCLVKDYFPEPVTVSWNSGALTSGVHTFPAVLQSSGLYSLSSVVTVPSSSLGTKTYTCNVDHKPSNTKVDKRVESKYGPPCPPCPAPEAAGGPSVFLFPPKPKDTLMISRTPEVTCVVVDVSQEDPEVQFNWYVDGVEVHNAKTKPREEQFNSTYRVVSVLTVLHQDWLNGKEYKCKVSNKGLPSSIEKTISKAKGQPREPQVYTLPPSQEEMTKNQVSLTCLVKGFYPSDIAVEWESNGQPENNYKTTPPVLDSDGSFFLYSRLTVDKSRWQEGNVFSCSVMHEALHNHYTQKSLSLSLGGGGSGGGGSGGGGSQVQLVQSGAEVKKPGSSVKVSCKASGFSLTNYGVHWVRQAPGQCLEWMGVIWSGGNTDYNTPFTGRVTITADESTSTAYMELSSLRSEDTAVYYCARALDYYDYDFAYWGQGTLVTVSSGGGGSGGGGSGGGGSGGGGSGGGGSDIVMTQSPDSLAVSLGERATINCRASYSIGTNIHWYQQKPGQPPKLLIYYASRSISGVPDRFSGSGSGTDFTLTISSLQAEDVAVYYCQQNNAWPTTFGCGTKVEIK
light: B1 light
notes: Tetravalent: anti-MET C8-H241 human IgG4 with an anti-EGFR H9 scFv fused to the heavy chain C-terminus
B3: anti-MET/EGFR multifunctional antibody NH-H9 (bispecific antibody, human IgG4 S228P, kappa, F234A L235A)
heavy: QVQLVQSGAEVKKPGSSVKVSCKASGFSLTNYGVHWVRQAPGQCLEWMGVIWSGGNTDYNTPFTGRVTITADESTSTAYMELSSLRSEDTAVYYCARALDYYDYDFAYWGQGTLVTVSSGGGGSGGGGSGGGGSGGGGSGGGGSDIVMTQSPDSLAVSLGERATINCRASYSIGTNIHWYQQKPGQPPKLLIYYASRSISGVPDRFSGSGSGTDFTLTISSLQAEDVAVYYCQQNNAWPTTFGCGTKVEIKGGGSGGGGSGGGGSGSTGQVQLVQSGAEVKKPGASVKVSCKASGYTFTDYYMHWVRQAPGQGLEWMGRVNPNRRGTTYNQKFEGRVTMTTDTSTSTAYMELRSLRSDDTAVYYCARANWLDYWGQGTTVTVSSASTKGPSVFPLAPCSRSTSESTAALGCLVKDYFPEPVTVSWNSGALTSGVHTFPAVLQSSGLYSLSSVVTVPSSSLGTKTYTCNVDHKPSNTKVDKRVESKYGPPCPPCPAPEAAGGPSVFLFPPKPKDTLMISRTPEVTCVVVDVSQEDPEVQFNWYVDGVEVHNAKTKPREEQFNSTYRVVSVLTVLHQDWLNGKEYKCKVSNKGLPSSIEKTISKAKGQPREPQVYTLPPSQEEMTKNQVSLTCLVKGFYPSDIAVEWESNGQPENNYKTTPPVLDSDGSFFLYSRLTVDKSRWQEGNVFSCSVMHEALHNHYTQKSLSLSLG
light: B1 light
notes: Tetravalent: anti-MET C8-H241 human IgG4 with an anti-EGFR H9 scFv fused to the N-terminus of each heavy chain
B4: anti-MET/EGFR multifunctional antibody YK (bispecific antibody, human IgG4 S228P, kappa, F234A L235A)
heavy: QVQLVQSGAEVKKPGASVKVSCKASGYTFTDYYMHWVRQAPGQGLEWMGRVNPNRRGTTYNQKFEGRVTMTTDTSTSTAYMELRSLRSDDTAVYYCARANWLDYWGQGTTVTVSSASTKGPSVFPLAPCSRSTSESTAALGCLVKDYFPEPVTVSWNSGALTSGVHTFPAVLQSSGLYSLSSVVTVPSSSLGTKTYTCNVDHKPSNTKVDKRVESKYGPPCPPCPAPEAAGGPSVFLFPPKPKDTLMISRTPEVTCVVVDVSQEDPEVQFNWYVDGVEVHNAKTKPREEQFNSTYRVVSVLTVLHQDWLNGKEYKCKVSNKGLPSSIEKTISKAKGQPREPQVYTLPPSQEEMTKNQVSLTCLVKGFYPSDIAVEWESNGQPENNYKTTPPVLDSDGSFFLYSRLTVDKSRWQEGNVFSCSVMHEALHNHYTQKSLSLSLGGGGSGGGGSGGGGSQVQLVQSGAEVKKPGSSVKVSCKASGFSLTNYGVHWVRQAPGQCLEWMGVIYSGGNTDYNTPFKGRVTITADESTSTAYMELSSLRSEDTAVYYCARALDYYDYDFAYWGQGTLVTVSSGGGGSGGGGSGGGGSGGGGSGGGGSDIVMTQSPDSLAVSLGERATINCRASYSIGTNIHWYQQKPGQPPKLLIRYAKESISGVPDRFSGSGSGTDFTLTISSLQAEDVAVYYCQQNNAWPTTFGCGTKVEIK
light: B1 light
notes: Tetravalent: anti-MET C8-H241 human IgG4 with an anti-EGFR YK scFv fused to the heavy chain C-terminus

Columns and labels:
[1] = biological target: extracellular domain of human MET (MET-ECD) (human, UniProt P08581 25-932); experiment: SPR (Biacore), antibody captured on protein A chip, MET-ECD in solution, 25 C, 1:1 model
extracellular domain of human MET (MET-ECD), sequence (P08581 25-932): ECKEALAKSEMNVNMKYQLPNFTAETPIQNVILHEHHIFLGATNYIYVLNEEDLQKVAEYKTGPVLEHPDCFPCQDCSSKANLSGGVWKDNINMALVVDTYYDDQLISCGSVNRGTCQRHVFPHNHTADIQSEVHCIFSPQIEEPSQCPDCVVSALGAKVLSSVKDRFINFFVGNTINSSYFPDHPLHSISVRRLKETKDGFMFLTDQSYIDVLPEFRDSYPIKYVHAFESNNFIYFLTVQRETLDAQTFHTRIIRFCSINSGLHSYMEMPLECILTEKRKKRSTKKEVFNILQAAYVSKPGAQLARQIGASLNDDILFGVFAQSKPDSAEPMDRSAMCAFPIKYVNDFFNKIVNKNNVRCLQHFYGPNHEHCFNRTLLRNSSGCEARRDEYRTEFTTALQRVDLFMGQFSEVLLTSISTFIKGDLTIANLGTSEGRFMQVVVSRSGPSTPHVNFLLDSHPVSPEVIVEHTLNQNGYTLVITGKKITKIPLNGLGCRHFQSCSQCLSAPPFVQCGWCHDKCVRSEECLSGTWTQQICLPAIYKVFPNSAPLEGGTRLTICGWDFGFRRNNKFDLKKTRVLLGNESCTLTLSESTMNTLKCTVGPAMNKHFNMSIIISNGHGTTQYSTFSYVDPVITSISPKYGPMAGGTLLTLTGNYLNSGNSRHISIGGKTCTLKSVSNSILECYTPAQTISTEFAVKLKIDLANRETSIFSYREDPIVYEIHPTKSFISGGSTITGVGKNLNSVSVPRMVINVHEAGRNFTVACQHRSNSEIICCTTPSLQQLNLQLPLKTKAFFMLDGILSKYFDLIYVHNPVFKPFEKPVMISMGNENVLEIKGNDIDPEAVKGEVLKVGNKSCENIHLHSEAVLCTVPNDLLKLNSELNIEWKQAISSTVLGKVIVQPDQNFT

[2] = biological target: EGFR on the cell surface of human tumor cell lines (human, UniProt P00533 25-1210); experiment: cell-based or functional assay
[3] = biological target: T1, human EGFR extracellular domain (EGFR-ECD) (human, UniProt P00533 25-645); experiment: SPR (Biacore), antibody captured on protein A chip, EGFR-ECD in solution, 25 C, 1:1 model
T1 construct: extracellular domain; also called human EGFR-ECD

[4] = biological target: T2, MET on the cell surface of human tumor cell lines (human, UniProt P08581 25-1390); experiment: cell-based or functional assay
[5] = biological target: T2, MET on the cell surface of human tumor …; experiment: cell-based or functional assay; remark: listed apart in the source

| Binder | Kd [1] [nM] | koff [1] [s⁻¹] | kon [1] [M⁻¹ s⁻¹] | average % of cell viability, H1666 cells, antibody 0.02 nM [2] [%] | average % of cell viability, H1666 cells, antibody 0.05 nM [2] [%] | average % of cell viability, H1666 cells, antibody 0.14 nM [2] [%] | average % of cell viability, H1666 cells, antibody 0.41 nM [2] [%] | average % of cell viability, H1666 cells, antibody 1.23 nM [2] [%] | average % of cell viability, H1666 cells, antibody 3.70 nM [2] [%] | average % of cell viability, H1666 cells, antibody 11.11 nM [2] [%] | average % of cell viability, H1666 cells, antibody 33.33 nM [2] [%] | average % of cell viability, H1666 cells, antibody 100 nM [2] [%] | Kd [3] [nM] | koff [3] [s⁻¹] | kon [3] [M⁻¹ s⁻¹] | average % of cell viability (CellTiter-Glo), H596 cells + 50 ng/mL HGF, antibody 0.4 nM [5] [%] | average % of cell viability (CellTiter-Glo), H596 cells + 50 ng/mL HGF, antibody 1.2 nM [5] [%] | average % of cell viability (CellTiter-Glo), H596 cells + 50 ng/mL HGF, antibody 3.7 nM [5] [%] | average % of cell viability (CellTiter-Glo), H596 cells + 50 ng/mL HGF, antibody 11.1 nM [5] [%] | average % of cell viability (CellTiter-Glo), H596 cells + 50 ng/mL HGF, antibody 33.3 nM [5] [%] | other results |
| --- | --- | --- | --- | --- | --- | --- | --- | --- | --- | --- | --- | --- | --- | --- | --- | --- | --- | --- | --- | --- | --- |
| B1 | 0.84 | 6.3e-05 | 75000 | 106 | 105 | 87.2 | 65.5 | 45.6 | 36.9 | 31.9 | 27.9 | 26.4 | 0.19 | 0.00075 | 4e+06 | 113 | 108 | 104 | 107 | 101 | % cell surface MET remaining, H441 cells, 50 nM antibody overnight, FACS [4]: 58%; AVG of MFI (staining of cell surface MET), H441 cells, 50 nM antibody overnight, FACS [4]: 44.9 MFI; average % of cell viability (CellTiter-Glo), H596 cells + 50 ng/mL HGF, antibody 100 nM [5]: 102% |
| B2 | 1.15 | 0.000109 | 95000 |  |  |  |  |  |  |  |  |  | 0.32 | 0.00018 | 570000 |  |  |  |  |  |  |
| B3 | 0.75 | 7.9e-05 | 105000 | 105 | 100 | 77.8 | 52.9 | 38.6 | 31.6 | 26.6 | 24.1 | 23.1 | 0.1 | 0.00018 | 1.8e+06 | 107 | 102 | 103 | 105 | 102 | average % of cell viability (CellTiter-Glo), H596 cells + 50 ng/mL HGF, antibody 100 nM [5]: 102% |
| B4 | 0.26 | 3.3e-05 | 126000 |  |  |  |  |  |  |  |  |  | 0.44 | 0.00057 | 1.3e+06 |  |  |  |  |  |  |
